The first test addresses Venus-PreIQ3-IQ-A1.3. Put plainly: FRET two-hybrid assay. The following applies: parent: est. 22; read off a plot.
As for Cerulean-ICDI1.4 EES[1944]AAA, the Ka came out at 38 µM⁻¹.

Turning to Cerulean-ICDI1.4 ILS[1947]AAA, the Ka was determined as 37 µM⁻¹.

For the substance Cerulean-ICDI1.4 SHG[1877]AAA, the Ka came to 61 µM⁻¹. For Cerulean-ICDI1.4 ALA[1908]AAA, the Ka turned out to be 38 µM⁻¹. As to Cerulean-ICDI1.4 ASD[1929]AAA, the Ka worked out at 30 µM⁻¹. Take Cerulean-ICDI1.4 CVH[1962]AAA: the Ka came to 51 µM⁻¹. With Cerulean-ICDI1.4 DNA[1926]AAA, the Ka amounted to 7 µM⁻¹.

On to Cerulean-ICDI1.4 SSL[1938]AAA, for which the Ka is 46 µM⁻¹. The same measure, in the same setting: the result for Cerulean-ICDI1.4 EED[1953]AAA reads 40 µM⁻¹; that for Cerulean-ICDI1.4 EAV[1889]AAA, 37 µM⁻¹; that for Cerulean-ICDI1.4 KRG[1880]AAA, 6.5 µM⁻¹. Regarding Cerulean-ICDI1.4 EGL[1895]AAA, the Ka was 6 µM⁻¹.

Consider Cerulean-ICDI1.4 QGT[1935]AAA, for which the Ka is 56 µM⁻¹. In the case of Cerulean-ICDI1.4 SDP[1874]AAA, the Ka is 31 µM⁻¹. In the case of Cerulean-ICDI1.4 SAD[1883]AAA, the Ka amounted to 30 µM⁻¹. In the case of Cerulean-ICDI1.4 EMA[1959]AAA, the Ka amounted to 26 µM⁻¹.

Consider Cerulean-ICDI1.4 GTH[1871]AAA, for which the Ka was 48 µM⁻¹. Take Cerulean-ICDI1.4 HVP[1868]AAA: the Ka worked out at 42 µM⁻¹. On to Cerulean-ICDI1.4 ACR[1917]AAA, for which the Ka came to 14 µM⁻¹.

As to Cerulean-ICDI1.4 LGD[1956]AAA, the Ka was found to be 50 µM⁻¹. With Cerulean-ICDI1.4 GLF[1898]AAA, the Ka is 3.5 µM⁻¹. Same read-out and setting: with Cerulean-ICDI1.4 RFD[1950]AAA the figure was 51 µM⁻¹.

Another test has as its target Cerulean-ICDI1.4. Put plainly: FRET two-hybrid assay. The following applies: parent: est. 26 µM^-1; read off a plot.
Turning to Venus-IQ-A1.3 LVG[1623]AAA, the Ka came to 27 µM⁻¹. Same read-out and setting: the result for Venus-IQ-A1.3 ALQ[1635]AAA reads 8.5 µM⁻¹; that for Venus-IQ-A1.3 RTL[1641]AAA, 7 µM⁻¹. Same read-out and setting: with Venus-IQ-A1.3 AGL[1638]AAA the figure was 7.5 µM⁻¹; with Venus-IQ-A1.3 KYP[1626]AAA, 25 µM⁻¹. Venus-IQ-A1.3 TTI[1632]AAA: the Ka came out at 54 µM⁻¹. Venus-IQ-A1.3 IRR[1650]AAA: the Ka turned out to be 8 µM⁻¹. Regarding Venus-IQ-A1.3 GPE[1647]AAA, the Ka was 44 µM⁻¹. Venus-IQ-A1.3 AKN[1629]AAA: the Ka came out at 22 µM⁻¹. Turning to Venus-IQ-A1.3 AIS[1653]AAA, the Ka is 9.5 µM⁻¹.

As for Venus-IQ-A1.3 HDI[1644]AAA, the Ka stood at 55 µM⁻¹.

Staying with this test, now noted: parent: est. 21; read off a plot.
Take Venus-PreIQ3-IQ-A1.3 K[+8]A: the Ka turned out to be 15 µM⁻¹.

With Venus-PreIQ3-IQ-A1.3 D[-13]A, the Ka is 28 µM⁻¹. Regarding Venus-PreIQ3-IQ-A1.3 P[-17]A, the Ka was 16 µM⁻¹.

On to Venus-PreIQ3-IQ-A1.3 T[-10]A, for which the Ka came to 37 µM⁻¹.

On to Venus-PreIQ3-IQ-A1.3 V[-11]A, for which the Ka is 15 µM⁻¹. Consider Venus-PreIQ3-IQ-A1.3 R[+5]A, for which the Ka is 16 µM⁻¹. As for Venus-PreIQ3-IQ-A1.3 Y[+3]A, the Ka was determined as 25 µM⁻¹.

Turning to Venus-PreIQ3-IQ-A1.3 I[0]A, the Ka was determined as 24 µM⁻¹. Turning to Venus-PreIQ3-IQ-A1.3 T[-3]A, the Ka was determined as 34 µM⁻¹. As for Venus-PreIQ3-IQ-A1.3 K[+6]A, the Ka worked out at 15 µM⁻¹.

Turning to Venus-PreIQ3-IQ-A1.3 V[-9]A, the Ka is 11 µM⁻¹.

For the substance Venus-PreIQ3-IQ-A1.3 Q[+1]A, the Ka was determined as 24 µM⁻¹. Still for that read-out and setting: with Venus-PreIQ3-IQ-A1.3 K[-7]A the figure was 14 µM⁻¹; with Venus-PreIQ3-IQ-A1.3 E[-12]A, 37 µM⁻¹. As to Venus-PreIQ3-IQ-A1.3 P[-18]A, the Ka was 22 µM⁻¹. Take Venus-PreIQ3-IQ-A1.3 D[-14]A: the Ka was 14 µM⁻¹. For Venus-PreIQ3-IQ-A1.3 A[-16]T, the Ka came to 18 µM⁻¹. For Venus-PreIQ3-IQ-A1.3 L[-1]A, the Ka is 7 µM⁻¹. Venus-PreIQ3-IQ-A1.3 F[+4]A: the Ka turned out to be 3.2 µM⁻¹. For Venus-PreIQ3-IQ-A1.3 Y[-5]A, the Ka stood at 4.7 µM⁻¹. In the case of Venus-PreIQ3-IQ-A1.3 F[-6]A, the Ka stood at 12 µM⁻¹. Consider Venus-PreIQ3-IQ-A1.3 K[+11]A, for which the Ka was 15 µM⁻¹. Still for that read-out and setting: with Venus-PreIQ3-IQ-A1.3 A[-4]T the figure was 9 µM⁻¹; with Venus-PreIQ3-IQ-A1.3 G[-8]A, 32 µM⁻¹; with Venus-PreIQ3-IQ-A1.3 D[+2]A, 18 µM⁻¹. As to Venus-PreIQ3-IQ-A1.3 G[-15]A, the Ka is 22 µM⁻¹. On to Venus-PreIQ3-IQ-A1.3 R[+10]A, for which the Ka is 15 µM⁻¹.

On to Venus-PreIQ3-IQ-A1.3 F[+7]A, for which the Ka stood at 15 µM⁻¹.

Regarding Venus-PreIQ3-IQ-A1.3 K[+9]A, the Ka is 15 µM⁻¹.

The values are drawn from PMC8054141.
